In this series the test system is Escherichia coli TOP10. As to the kind of experiment: shrunken log2 fold change of peptide-encoding DNA abundance (4.5 h post-induction vs induction); higher = less antimicrobial activity (less host growth inhibition). The conditions noted are these: time post-induction: 4.5 h; library: site-saturation at positions 5, 18, 19, 20.

The values that follow come from the supplement of paper PMC9112550, “Optimization of the antimicrobial peptide Bac7 by deep mutational scanning” (BMC Biology, 2022).
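Also: peptides expressed intracellularly from a pBAD plasmid library in pooled LB shake-flask culture, induced with 0.3% L-arabinose, DNA abundance read by NGS, three biological replicates, DESeq2 with apeglm shrinkage.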

On to RRIRSRPPRLPRPRPRPPFTPRP, for which the “shrunken log2 fold change” value was -0.00795.

RRIRARPPRLPRPRPRPTDRPRP: the “shrunken log2 fold change” value is 0.0653. The same measure for RRIRIRPPRLPRPRPRPEDSPRP: -0.0125. The same measure for RRIRGRPPRLPRPRPRPQINPRP: 0.324. Under RRIRCRPPRLPRPRPRPILIPRP stands 1.28. Turning to RRIRVRPPRLPRPRPRPNEIPRP, the “shrunken log2 fold change” value was -0.52. With RRIRIRPPRLPRPRPRPVVFPRP, the “shrunken log2 fold change” value is 0.0165. Under RRIRTRPPRLPRPRPRPTFQPRP stands 0.0412. Under RRIRCRPPRLPRPRPRPRHVPRP stands -0.0723.

On to RRIRKRPPRLPRPRPRPYNHPRP, for which the “shrunken log2 fold change” value was -0.0988.

With RRIRCRPPRLPRPRPRPAFVPRP, the “shrunken log2 fold change” value was determined as 0.179. Under RRIRCRPPRLPRPRPRPVFYPRP stands -0.379; under RRIRGRPPRLPRPRPRPLKFPRP, 0.11. Regarding RRIRWRPPRLPRPRPRPDPCPRP, the “shrunken log2 fold change” value is -0.026. Consider RRIRYRPPRLPRPRPRPINLPRP, for which the “shrunken log2 fold change” value is -0.145. Consider RRIRVRPPRLPRPRPRPESVPRP, for which the “shrunken log2 fold change” value is -0.204.

RRIRCRPPRLPRPRPRPSKYPRP: the “shrunken log2 fold change” value is -0.635. Under RRIRRRPPRLPRPRPRPSKVPRP stands -0.0758; under RRIRMRPPRLPRPRPRPAVEPRP, 0.741; under RRIRNRPPRLPRPRPRPQKWPRP, -0.0202. In the case of RRIRCRPPRLPRPRPRPSCEPRP, the “shrunken log2 fold change” value was -0.493. Under RRIRYRPPRLPRPRPRPDNLPRP stands -0.196; under RRIRRRPPRLPRPRPRPKMAPRP, 0.201; under RRIRLRPPRLPRPRPRPIAVPRP, -0.16. Regarding RRIRERPPRLPRPRPRPPAMPRP, the “shrunken log2 fold change” value is -0.186.

As for RRIRFRPPRLPRPRPRPRCQPRP, the “shrunken log2 fold change” value was determined as 0.24. The same measure for RRIRRRPPRLPRPRPRPMNFPRP: 0.154; for RRIRCRPPRLPRPRPRPPCWPRP: 0.264; for RRIRERPPRLPRPRPRPYPMPRP: -0.172. Under RRIRWRPPRLPRPRPRPIWQPRP stands -0.0567; under RRIRQRPPRLPRPRPRPMYSPRP, -0.746. The same measure for RRIRHRPPRLPRPRPRPGNTPRP: -0.319. As to RRIRYRPPRLPRPRPRPDVDPRP, the “shrunken log2 fold change” value was -0.0562.

For RRIRRRPPRLPRPRPRPQLLPRP, the “shrunken log2 fold change” value was found to be 0.537. Under RRIRARPPRLPRPRPRPMLVPRP stands 0.291; under RRIRERPPRLPRPRPRPRAHPRP, 0.352; under RRIRLRPPRLPRPRPRPLCWPRP, 0.487. Regarding RRIRERPPRLPRPRPRPQKPPRP, the “shrunken log2 fold change” value stood at 0.0657. On to RRIRIRPPRLPRPRPRPRQQPRP, for which the “shrunken log2 fold change” value is 0.0393. On to RRIRARPPRLPRPRPRPCANPRP, for which the “shrunken log2 fold change” value worked out at 0.102.

With RRIRHRPPRLPRPRPRPKKHPRP, the “shrunken log2 fold change” value is -0.324.

Take RRIRNRPPRLPRPRPRPCLAPRP: the “shrunken log2 fold change” value is -0.69. The same measure for RRIRERPPRLPRPRPRPVFQPRP: -0.0545; for RRIRWRPPRLPRPRPRPSNTPRP: -0.355; for RRIRYRPPRLPRPRPRPQMDPRP: -0.801. Under RRIRTRPPRLPRPRPRPERLPRP stands -0.0511; under RRIRSRPPRLPRPRPRPFKIPRP, -0.466.

RRIRGRPPRLPRPRPRPMAVPRP: the “shrunken log2 fold change” value was 0.773. The same measure for RRIRKRPPRLPRPRPRPFVKPRP: -0.00571; for RRIRHRPPRLPRPRPRPWCKPRP: -0.111. On to RRIRFRPPRLPRPRPRPDATPRP, for which the “shrunken log2 fold change” value was 0.486.

Regarding RRIRVRPPRLPRPRPRPSHMPRP, the “shrunken log2 fold change” value was -0.585.

Turning to RRIRARPPRLPRPRPRPEFTPRP, the “shrunken log2 fold change” value is 0.475.

On to RRIRHRPPRLPRPRPRPQPCPRP, for which the “shrunken log2 fold change” value came out at 0.0971. Under RRIRFRPPRLPRPRPRPVGFPRP stands -0.0508; under RRIRIRPPRLPRPRPRPWFCPRP, -0.322; under RRIRCRPPRLPRPRPRPTKRPRP, 0.0767. Turning to RRIRWRPPRLPRPRPRPPWCPRP, the “shrunken log2 fold change” value was found to be 0.183.

Take RRIRCRPPRLPRPRPRPQVSPRP: the “shrunken log2 fold change” value is -0.0343. The same measure for RRIRWRPPRLPRPRPRPGWVPRP: 0.224.

Regarding RRIRKRPPRLPRPRPRPDIEPRP, the “shrunken log2 fold change” value stood at 2.53. The same measure for RRIRCRPPRLPRPRPRPCKKPRP: -0.205.
